Source: the Human Domainome abundance scans (Beltran et al. 2025)
± gives the uncertainty stated by the source.

B1: Dystrobrevin alpha, residues 235 to 294; numbered along this chain, Q9Y4J8 (parent)
chain: ENVFHPVECSYCHSESMMGFRYRCQQCHNYQLCQDCFWRGHAGGSHSNQHQMKEYTSWKS
B2: Myocardin, residues 363 to 406; numbered along this chain, Q8IZQ8 (parent)
chain: KPGPLPPNLDDLKVSELRQQLRIRGLPVSGTKTALMDRLRPFQD

Variants of: B1
Assay: abundance fitness (aPCA) (normalised: wild type 0, dead -1); higher = more abundant; growth selection in yeast, the domain comes from the species named
Conditions: Homo sapiens

Abundance fitness, by site and new letter:
K59: A 0.082 ± 0.079, G 0.229 ± 0.08, H 0.074 ± 0.1, V -0.105 ± 0.11, T 0.049 ± 0.083, I -0.392 ± 0.38, N 0.017 ± 0.3, E -0.127 ± 0.15, P -0.034 ± 0.32, Q 0.126 ± 0.12, F -0.142 ± 0.1, C -0.001 ± 0.086, Y -0.099 ± 0.19, D 0.356 ± 0.21, L -0.013 ± 0.085
K53: G -0.248 ± 0.052, V 0.137 ± 0.065, C -0.137 ± 0.068, A -0.135 ± 0.083, P -0.592 ± 0.13, Y -0.262 ± 0.11, H -0.167 ± 0.21, W -0.459 ± 0.089, T -0.154 ± 0.085, R -0.111 ± 0.053, Q 0.026 ± 0.089, S -0.11 ± 0.07, L -0.108 ± 0.061, E -0.029 ± 0.078, D -0.16 ± 0.12, M -0.108 ± 0.092, F -0.313 ± 0.097, I -0.111 ± 0.1
Y55: K -0.609 ± 0.23, E 0.117 ± 0.1, D 0.243 ± 0.093, A -0.064 ± 0.079, F -0.155 ± 0.098, C 0.209 ± 0.085, H -0.134 ± 0.27, W 0.06 ± 0.04, P -0.078 ± 0.12, R -0.11 ± 0.066, Q -0.071 ± 0.086, V 0.238 ± 0.068, L 0.06 ± 0.075, S 0.245 ± 0.058, N -0.144 ± 0.19, I -0.066 ± 0.1, T 0.104 ± 0.095
W58: F -0.021 ± 0.083, C 0.003 ± 0.07, M 0.251 ± 0.068, D 0.284 ± 0.07, K 0.195 ± 0.099, R 0.077 ± 0.051, T 0.258 ± 0.075, G 0.192 ± 0.044, N 0.232 ± 0.12, Q -0.127 ± 0.15, L 0.019 ± 0.068, S 0.057 ± 0.06, V 0.224 ± 0.057, Y 0.142 ± 0.26, E 0.297 ± 0.097, H 0.105 ± 0.15, A 0.258 ± 0.05
S57: G -0.044 ± 0.08, T 0.008 ± 0.064, W -0.192 ± 0.089, K -0.019 ± 0.069, Q -0.059 ± 0.089, D 0.071 ± 0.12, A 0.085 ± 0.064, P 0.171 ± 0.077, L -0.165 ± 0.056, C 0.074 ± 0.065, R -0.152 ± 0.056, V 0.005 ± 0.068, F -0.391 ± 0.085, N -0.291 ± 0.12, Y -0.395 ± 0.13, H 0.124 ± 0.08, M 0.036 ± 0.081, E 0.058 ± 0.072, I -0.11 ± 0.11
E54: G -0.29 ± 0.5, T 0.312 ± 0.21
T56: H -0.025 ± 0.1, D 0.188 ± 0.076, K 0.066 ± 0.1, Q 0.044 ± 0.09, W -0.605 ± 0.093, C 0.076 ± 0.091, V -0.137 ± 0.06, A 0.017 ± 0.061, Y -0.509 ± 0.1, P 0.126 ± 0.059, F -0.642 ± 0.18, G 0.024 ± 0.057, L -0.462 ± 0.064, N -0.045 ± 0.19, S 0.104 ± 0.057, E 0.307 ± 0.12, R -0.061 ± 0.044, I -0.218 ± 0.097, M -0.151 ± 0.12
S60: H 0.112 ± 0.26, G 0.064 ± 0.48, V 0.034 ± 0.18, A -0.446 ± 0.24, L -0.196 ± 0.12, N -0.216 ± 0.34, F 0.02 ± 0.12, Y -0.207 ± 0.14, C -0.276 ± 0.14, D 0.335 ± 0.37, R 0.134 ± 0.15, Q 0.216 ± 0.15, P -0.065 ± 0.092, I -0.519 ± 0.14

Variants of: B2
Assay: as above
Conditions: Homo sapiens

Abundance fitness of substitutions, site by site:
S15: E 0.171 ± 0.14, A 0.113 ± 0.068, H 0.023 ± 0.18, D 0.015 ± 0.079, F -0.22 ± 0.084, C -0.168 ± 0.098, I -0.23 ± 0.11, G -0.122 ± 0.056
D10: Y 0.026 ± 0.32, V 0.076 ± 0.068, Q -0.163 ± 0.14, W 0.104 ± 0.082, A 0.178 ± 0.081, T -0.178 ± 0.29, E 0.287 ± 0.071, P -0.552 ± 0.16, R -0.147 ± 0.065, N -0.078 ± 0.17, K -0.076 ± 0.11, H -0.315 ± 0.13, C 0.245 ± 0.099, F -0.582 ± 0.36, S -0.257 ± 0.075, G 0.311 ± 0.058
P7: D 0.052 ± 0.13, M 0.239 ± 0.14, I 0.107 ± 0.16, W -0.414 ± 0.11, S -0.009 ± 0.087, Q 0.266 ± 0.073, E 0.253 ± 0.071, K 0.464 ± 0.083, Y -0.085 ± 0.31, T 0.018 ± 0.15, N 0.346 ± 0.14, A 0.12 ± 0.081, V 0.227 ± 0.066, H 0.188 ± 0.091, L -0.001 ± 0.07, G 0.142 ± 0.057
L5: G -0.283 ± 0.059, D -0.245 ± 0.12, Q -0.131 ± 0.1, M -0.139 ± 0.15, T -0.302 ± 0.087, H -0.311 ± 0.33, C -0.044 ± 0.1, R -0.448 ± 0.062, Y -0.204 ± 0.18, E -0.13 ± 0.11, I 0.011 ± 0.18, S -0.341 ± 0.12, K -0.514 ± 0.19, F -0.307 ± 0.16, N -0.276 ± 0.32, W -0.984 ± 0.13
P6: Q -0.267 ± 0.073, M -0.135 ± 0.15, G -0.153 ± 0.057, I -0.361 ± 0.12, D -0.195 ± 0.12, L -0.26 ± 0.091, F -0.356 ± 0.42, W -0.484 ± 0.085, N -0.34 ± 0.16, A -0.02 ± 0.094, T -0.197 ± 0.14, E -0.131 ± 0.11, S -0.095 ± 0.078, V -0.133 ± 0.065
D11: F -0.175 ± 0.16, S 0.27 ± 0.082, P -0.714 ± 0.11, E -0.082 ± 0.093, Q -0.007 ± 0.075, A 0.085 ± 0.063, G -0.074 ± 0.055, N -0.004 ± 0.12, R -0.135 ± 0.057, L 0.009 ± 0.072, K 0.083 ± 0.066, V 0 ± 0.087, Y -0.183 ± 0.14, C -0.272 ± 0.26, T 0.135 ± 0.1, M 0.063 ± 0.11, W -0.441 ± 0.093
K1: Y -0.608 ± 0.17, C -0.286 ± 0.17, W -0.98 ± 0.18, I 0.021 ± 0.11, V -0.643 ± 0.1, L -0.666 ± 0.31, N 0.11 ± 0.17, M -0.835 ± 0.25, A -0.671 ± 0.11, D -0.268 ± 0.098, R -1 ± 0.12, G -0.47 ± 0.073, T -0.521 ± 0.13, S -0.672 ± 0.084
L12: P -0.899 ± 0.21, D -0.429 ± 0.09, A -0.425 ± 0.061, T -0.401 ± 0.1, H -0.614 ± 0.14, F 0.053 ± 0.25, W -0.315 ± 0.085, Q -0.506 ± 0.34, N -0.507 ± 0.21, C -0.499 ± 0.13, V -0.497 ± 0.068, Y 0.298 ± 0.16, R -0.394 ± 0.064, G -0.638 ± 0.069, S -0.274 ± 0.12, K -0.284 ± 0.35, E -0.369 ± 0.088
P4: E 0.107 ± 0.069, S 0.078 ± 0.079, K 0.371 ± 0.079, G -0.229 ± 0.067, L 0.102 ± 0.076, T 0.329 ± 0.099, Q 0.136 ± 0.074, R -0.059 ± 0.08, Y 0.368 ± 0.077, F 0.755 ± 0.26, V 0.09 ± 0.07, D 0.276 ± 0.08, M 0.392 ± 0.14, N 0.463 ± 0.12, C -0.079 ± 0.13, H 0.093 ± 0.076, A 0.069 ± 0.075
V14: W -1.02 ± 0.13, C -0.603 ± 0.19, G -0.757 ± 0.1, A -0.465 ± 0.14, M -0.116 ± 0.11, K -0.157 ± 0.1, T -0.222 ± 0.091, S -0.486 ± 0.15, L -0.16 ± 0.077, P -0.247 ± 0.16, D -0.702 ± 0.33, R -1.02 ± 0.11, H -0.396 ± 0.19, F -0.939 ± 0.43, Q -0.994 ± 0.26
G3: T 0.099 ± 0.099, D -0.228 ± 0.12, L -0.025 ± 0.08, V 0.102 ± 0.088, Y -0.067 ± 0.13, W -0.607 ± 0.083, C -0.792 ± 0.23, R 0.016 ± 0.063, Q 0.295 ± 0.099, H 0.059 ± 0.12, A 0.126 ± 0.088, M 0.146 ± 0.076, S -0.077 ± 0.088, P -0.265 ± 0.13, K 0.245 ± 0.12
L9: E -0.807 ± 0.1, A -0.876 ± 0.12, R -0.524 ± 0.058, Q -0.278 ± 0.083, I -0.289 ± 0.088, T -0.731 ± 0.12, G -0.491 ± 0.061, K -0.741 ± 0.19, D -0.873 ± 0.15, S -0.605 ± 0.14, N -0.871 ± 0.3, M -0.543 ± 0.13, P -0.513 ± 0.12, C -0.371 ± 0.19, H -0.542 ± 0.15, V -0.024 ± 0.072, W -0.615 ± 0.1
N8: W -0.915 ± 0.16, E -0.232 ± 0.072, R -0.116 ± 0.058, L -0.35 ± 0.06, V -0.048 ± 0.063, M -0.274 ± 0.17, H -0.373 ± 0.12, P -0.541 ± 0.099, C -0.342 ± 0.14, G -0.623 ± 0.064, Q -0.154 ± 0.12, A -0.187 ± 0.081, I -0.408 ± 0.23, D -0.246 ± 0.068, S -0.444 ± 0.085
P2: V 0.39 ± 0.11, E 0.401 ± 0.094, D 0.407 ± 0.18, I 0.466 ± 0.087, S 0.184 ± 0.07, N -0.011 ± 0.13, Q 0.374 ± 0.073, W -0.231 ± 0.093, K 0.284 ± 0.095, A 0.25 ± 0.061, M 0.387 ± 0.096, T -0.016 ± 0.13, R 0.085 ± 0.071, H -0.093 ± 0.11, Y 0.136 ± 0.35, F 0.328 ± 0.24
